Results published in the Human Domainome abundance scans (Beltran et al. 2025).
± gives the uncertainty stated by the source.

B1: Far upstream element-binding protein 1, residues 184 to 257; numbered along this chain, Q96AE4 (parent)
chain: GNAVQEIMIPASKAGLVIGKGGETIKQLQERAGVKMVMIQDGPQNTGADKPLRITGDPYKVQQAKEMVLELIRD

Variants of: B1
Test: abundance fitness (aPCA) (normalised: wild type 0, dead -1); higher = more abundant; growth selection in yeast, the domain comes from the species named
Details: Homo sapiens

| Variant | abundance fitness |
| --- | --- |
| GNAVQEIMIPASKAGLVIGKGGECIKQLQERAGVKMVMIQDGPQNTGADKPLRITGDPYKVQQAKEMVLELIRD [T24C] | -0.061 ± 0.041 |
| GNAVQEIMIPASKAGLVIGKGGEHIKQLQERAGVKMVMIQDGPQNTGADKPLRITGDPYKVQQAKEMVLELIRD [T24H] | -0.029 ± 0.049 |
| GNTVQEIMIPASKAGLVIGKGGETIKQLQERAGVKMVMIQDGPQNTGADKPLRITGDPYKVQQAKEMVLELIRD [A3T] | 0.235 ± 0.037 |
| GNAHQEIMIPASKAGLVIGKGGETIKQLQERAGVKMVMIQDGPQNTGADKPLRITGDPYKVQQAKEMVLELIRD [V4H] | 0.031 ± 0.047 |
| GNAVQEIMIPASKAGLVIGKGGETIKQLQERAGVKMVMIQDGPQNTGMDKPLRITGDPYKVQQAKEMVLELIRD [A48M] | 0.02 ± 0.041 |
| GNAVQEIMIPASKAGLVIGKGGETIKQLQERAGVKMVMIQDGPQNTGIDKPLRITGDPYKVQQAKEMVLELIRD [A48I] | 0.005 ± 0.057 |
| GNAVQEIMIPASKAGLVIGKGGETIKQLQERAGVKMVMIQDGPQNTGPDKPLRITGDPYKVQQAKEMVLELIRD [A48P] | -0.042 ± 0.037 |
| GNAVQEIMIPASKAGLVIGKGGETRKQLQERAGVKMVMIQDGPQNTGADKPLRITGDPYKVQQAKEMVLELIRD [I25R] | -0.316 ± 0.029 |
| GNAVQEIMIPASKAGLVIGVGGETIKQLQERAGVKMVMIQDGPQNTGADKPLRITGDPYKVQQAKEMVLELIRD [K20V] | -0.031 ± 0.03 |
| GNAVQEIMIPASKAELVIGKGGETIKQLQERAGVKMVMIQDGPQNTGADKPLRITGDPYKVQQAKEMVLELIRD [G15E] | 0.04 ± 0.036 |
| GNAVQEIMIPASKAGLVIGKGGETIKQLQERAGVKMVMIQDGPQNTGAIKPLRITGDPYKVQQAKEMVLELIRD [D49I] | -0.148 ± 0.046 |
| GNAVQEIMIPASKAGLVIGKGGETIKQLQERAGVKMVMIQDGPQNTGARKPLRITGDPYKVQQAKEMVLELIRD [D49R] | -0.129 ± 0.028 |
| GNAVQEIMIPASKAGLVIGKGGETIKQLQERAGVKMAMIQDGPQNTGADKPLRITGDPYKVQQAKEMVLELIRD [V37A] | -0.054 ± 0.032 |
| GNAVQEIMIVASKAGLVIGKGGETIKQLQERAGVKMVMIQDGPQNTGADKPLRITGDPYKVQQAKEMVLELIRD [P10V] | -0.946 ± 0.047 |
| GNAVQEIMIMASKAGLVIGKGGETIKQLQERAGVKMVMIQDGPQNTGADKPLRITGDPYKVQQAKEMVLELIRD [P10M] | -0.678 ± 0.05 |
| GNAVQEIMIPASKAGLVIGKGGDTIKQLQERAGVKMVMIQDGPQNTGADKPLRITGDPYKVQQAKEMVLELIRD [E23D] | -0.037 ± 0.044 |
| GNAVQEIMIPASKAGLVIGKGGETIKQLQERAGVKMVMIQDGPQNTGADKPLRITGDPYKVQQAKEMVLLLIRD [E70L] | -0.209 ± 0.03 |
| GNAVQEIMIPASKAGLVIGKGGETIKQLQERAGVKMVMIQDGPQNKGADKPLRITGDPYKVQQAKEMVLELIRD [T46K] | -0.066 ± 0.033 |
| GNAVQEIMIPASKAGLVIGKGGETIKQLQERAGVKMVMIQDGPQNTGADKPLRITGDLYKVQQAKEMVLELIRD [P58L] | -0.068 ± 0.03 |

| Variant | abundance fitness |
| --- | --- |
| GNAVQEIMIPASKAGLVIGKGGETIKQLQERAGVKMVMIQDGPQNTGADKPLRITGDQYKVQQAKEMVLELIRD [P58Q] | -0.079 ± 0.046 |
| GNAVQEIMIPASKAGLVIGKGGETIKQLQERAGVKMVMIQDGPQNTGADKPLRITGDSYKVQQAKEMVLELIRD [P58S] | -0.064 ± 0.033 |
| GNAVQEIMIPASKAGLMIGKGGETIKQLQERAGVKMVMIQDGPQNTGADKPLRITGDPYKVQQAKEMVLELIRD [V17M] | -0.08 ± 0.046 |
| GNAVQEIMIPASKAGLVIGKGGETIKQLQERAGVKMVMIQDGPQNTGADKPLRITGDPVKVQQAKEMVLELIRD [Y59V] | -0.024 ± 0.029 |
| GNAVQEIMIPASKAGLVIGKGGETIKQFQERAGVKMVMIQDGPQNTGADKPLRITGDPYKVQQAKEMVLELIRD [L28F] | -0.225 ± 0.062 |
| GNAVQEIMIPASKAGLVIGKGGETIKQAQERAGVKMVMIQDGPQNTGADKPLRITGDPYKVQQAKEMVLELIRD [L28A] | -0.467 ± 0.037 |
| GNAVQEIMIPASKAGLVIGKGGETIKQLQERAGVKMVMIQDGPQNTGADKPLRITGEPYKVQQAKEMVLELIRD [D57E] | 0.019 ± 0.029 |
| GNAVQEIMIPASKAGLVIGKGGETIKQLQERAGVKMVMIQDGPQNTGADKPLRITGAPYKVQQAKEMVLELIRD [D57A] | -0.017 ± 0.029 |
| GNAVQEIMIPASKAGLVIGKGGETIKQLQERAGVKMVMIQDGPQNTGADKPLRITGDPYKVQIAKEMVLELIRD [Q63I] | -0.025 ± 0.05 |
| GNAVQEIMIPASKAGLVIGKGGETIKQLQERAGVKMVMIQDGPQNTGADKPLRITGDPYKVQSAKEMVLELIRD [Q63S] | -0.061 ± 0.03 |
| GNAVQEIMIPLSKAGLVIGKGGETIKQLQERAGVKMVMIQDGPQNTGADKPLRITGDPYKVQQAKEMVLELIRD [A11L] | -0.092 ± 0.03 |
| GNAVQEIMIPASKKGLVIGKGGETIKQLQERAGVKMVMIQDGPQNTGADKPLRITGDPYKVQQAKEMVLELIRD [A14K] | -0.065 ± 0.047 |
| GNAVQEIMIPASCAGLVIGKGGETIKQLQERAGVKMVMIQDGPQNTGADKPLRITGDPYKVQQAKEMVLELIRD [K13C] | -0.008 ± 0.042 |
| GNAVQEIMIPASKAGLVIGKGGETIKQLQERAGVKTVMIQDGPQNTGADKPLRITGDPYKVQQAKEMVLELIRD [M36T] | -0.585 ± 0.042 |
| GNAVQEIMIPASKAGLVIGKGGETIKQLQERAGVKMVMIQDGPQNTGADKPLRITGDPYKVAQAKEMVLELIRD [Q62A] | 0.007 ± 0.03 |
| GNAVQEIMIPASKAGLVIGKGGETIKQLQERAGVKMVMIQDGPQNTGADKPLRITGDPYKVVQAKEMVLELIRD [Q62V] | -0.049 ± 0.03 |
| GNAVQEIMIPASKAGLVIGKGGETIKQLQERAGVKMVMIQDGPQETGADKPLRITGDPYKVQQAKEMVLELIRD [N45E] | -0.024 ± 0.029 |
| GNAVQEIMIPASKAGLVIGKGGETIKQLQERAGVKMVMIQDGPQNTGADKPLRITGDPYKVQQAKFMVLELIRD [E66F] | -0.18 ± 0.046 |
